In the supplement of paper PMC10567573:

B1: DCAF4 (parent)
chain: DSHILLCLMGLAETPGCATLLPAS

Variants of: B1
Experiment: protein stability index of a GFP-peptide fusion (GPS, HEK-293T) (PSI 1-6); higher = more stable
Details: c terminus: a fixed tail appended
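Further: lentivirally expressed fusions sorted by FACS into six bins by GFP to DsRed ratio, PSI derived from sequencing read proportions per bin multiplied by bin number.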

Variant	protein stability index
ISHILLCLMGLAETPGCATLLPAS	2.64
KSHILLCLMGLAETPGCATLLPAS	2.07
SSHILLCLMGLAETPGCATLLPAS	3.75
LSHILLCLMGLAETPGCATLLPAS	3.08
YSHILLCLMGLAETPGCATLLPAS	1.7
DSHKLLCLMGLAETPGCATLLPAS	2.2
DSHRLLCLMGLAETPGCATLLPAS	1.77
DSHWLLCLMGLAETPGCATLLPAS	2.97
DSHVLLCLMGLAETPGCATLLPAS	3.46
DSHYLLCLMGLAETPGCATLLPAS	2.33
DSHQLLCLMGLAETPGCATLLPAS	2.13
DSHPLLCLMGLAETPGCATLLPAS	1.86
DSHALLCLMGLAETPGCATLLPAS	1.67
DSHSLLCLMGLAETPGCATLLPAS	1.82
DSHMLLCLMGLAETPGCATLLPAS	1.86
DSHCLLCLMGLAETPGCATLLPAS	2.15
DSHELLCLMGLAETPGCATLLPAS	1.99
DSHHLLCLMGLAETPGCATLLPAS	1.64
DSHTLLCLMGLAETPGCATLLPAS	1.93
DSHFLLCLMGLAETPGCATLLPAS	2.53
DSHGLLCLMGLAETPGCATLLPAS	2.11
DSHLLLCLMGLAETPGCATLLPAS	2.96
DSHDLLCLMGLAETPGCATLLPAS	1.92
DSHNLLCLMGLAETPGCATLLPAS	1.93

Variant	protein stability index
DSHILLCGMGLAETPGCATLLPAS	1.93
DSHILLCAMGLAETPGCATLLPAS	1.96
DSHILLCKMGLAETPGCATLLPAS	2.02
DSHILLCDMGLAETPGCATLLPAS	3.14
DSHILLCTMGLAETPGCATLLPAS	1.97
DSHILLCNMGLAETPGCATLLPAS	2.58
DSHILLCSMGLAETPGCATLLPAS	1.69
DSHILLCPMGLAETPGCATLLPAS	2.5
DSHILLCYMGLAETPGCATLLPAS	3.55
DSHILLCRMGLAETPGCATLLPAS	2.62
DSHILLCHMGLAETPGCATLLPAS	1.51
DSHILLCCMGLAETPGCATLLPAS	2.39
DSHILLCWMGLAETPGCATLLPAS	2.07
DSHILLCEMGLAETPGCATLLPAS	2.36
DSHILLCQMGLAETPGCATLLPAS	1.95
DSHILLCMMGLAETPGCATLLPAS	3.25
DSHILLCLWGLAETPGCATLLPAS	4.64
DSHILLCLIGLAETPGCATLLPAS	2.6
DSHILLCLGGLAETPGCATLLPAS	1.7
DSHILLCLQGLAETPGCATLLPAS	2.26
DSHILLCLAGLAETPGCATLLPAS	2.83
DSHILLCLYGLAETPGCATLLPAS	3.06
DSHILLCLTGLAETPGCATLLPAS	1.98
DSHILLCLEGLAETPGCATLLPAS	2.02

Variant	protein stability index
DSHILLCLHGLAETPGCATLLPAS	2.14
DSHILLCLSGLAETPGCATLLPAS	1.67
DSHILLCLPGLAETPGCATLLPAS	2.12
DSHILLCLCGLAETPGCATLLPAS	1.71
DSHILLCLDGLAETPGCATLLPAS	1.92
DSHILLCLVGLAETPGCATLLPAS	2.83
DSHILLCLKGLAETPGCATLLPAS	1.42
DSHILLCLRGLAETPGCATLLPAS	1.82
DSHILLCLLGLAETPGCATLLPAS	4.92
DSHILLCLNGLAETPGCATLLPAS	1.6
DSHILLYLMGLAETPGCATLLPAS	3
DSHILLVLMGLAETPGCATLLPAS	2.19
DSHILLHLMGLAETPGCATLLPAS	2.9
DSHILLKLMGLAETPGCATLLPAS	2.14
DSHILLPLMGLAETPGCATLLPAS	2.47
DSHILLALMGLAETPGCATLLPAS	2.67
DSHILLFLMGLAETPGCATLLPAS	2.76
DSHILLELMGLAETPGCATLLPAS	1.7
DSHILLRLMGLAETPGCATLLPAS	2.1
DSHILLGLMGLAETPGCATLLPAS	2.32
DSHILLDLMGLAETPGCATLLPAS	1.78
DSHILLMLMGLAETPGCATLLPAS	2.11
DSHILLILMGLAETPGCATLLPAS	2.51
DSHILLWLMGLAETPGCATLLPAS	3.65

Variant	protein stability index
DSHILLQLMGLAETPGCATLLPAS	1.8
DSHILLNLMGLAETPGCATLLPAS	2.08
DSHILLSLMGLAETPGCATLLPAS	1.55
DSHILHCLMGLAETPGCATLLPAS	1.9
DSHILGCLMGLAETPGCATLLPAS	1.87
DSHILSCLMGLAETPGCATLLPAS	1.53
DSHILQCLMGLAETPGCATLLPAS	1.81
DSHILDCLMGLAETPGCATLLPAS	2.22
DSHILVCLMGLAETPGCATLLPAS	1.37
DSHILMCLMGLAETPGCATLLPAS	2.02
DSHILFCLMGLAETPGCATLLPAS	2.68
DSHILNCLMGLAETPGCATLLPAS	1.75
DSHILRCLMGLAETPGCATLLPAS	2.98
DSHILCCLMGLAETPGCATLLPAS	3.71
DSHILACLMGLAETPGCATLLPAS	1.87
DSHILYCLMGLAETPGCATLLPAS	2.86
DSHILPCLMGLAETPGCATLLPAS	2.74
DSHILKCLMGLAETPGCATLLPAS	2.19
DSHILWCLMGLAETPGCATLLPAS	4.4
DSHILTCLMGLAETPGCATLLPAS	1.5
DSHILICLMGLAETPGCATLLPAS	2.56
DSHILECLMGLAETPGCATLLPAS	2.01
